Measurements taken from paper PMC10388275 (Haematologica, 2023).

Molecular target: rmSiglec1-mFc (mouse, UniProt Q62230 20-1639)
Test: SPR

Sequence of rmSiglec1-mFc (Q62230 20-1639): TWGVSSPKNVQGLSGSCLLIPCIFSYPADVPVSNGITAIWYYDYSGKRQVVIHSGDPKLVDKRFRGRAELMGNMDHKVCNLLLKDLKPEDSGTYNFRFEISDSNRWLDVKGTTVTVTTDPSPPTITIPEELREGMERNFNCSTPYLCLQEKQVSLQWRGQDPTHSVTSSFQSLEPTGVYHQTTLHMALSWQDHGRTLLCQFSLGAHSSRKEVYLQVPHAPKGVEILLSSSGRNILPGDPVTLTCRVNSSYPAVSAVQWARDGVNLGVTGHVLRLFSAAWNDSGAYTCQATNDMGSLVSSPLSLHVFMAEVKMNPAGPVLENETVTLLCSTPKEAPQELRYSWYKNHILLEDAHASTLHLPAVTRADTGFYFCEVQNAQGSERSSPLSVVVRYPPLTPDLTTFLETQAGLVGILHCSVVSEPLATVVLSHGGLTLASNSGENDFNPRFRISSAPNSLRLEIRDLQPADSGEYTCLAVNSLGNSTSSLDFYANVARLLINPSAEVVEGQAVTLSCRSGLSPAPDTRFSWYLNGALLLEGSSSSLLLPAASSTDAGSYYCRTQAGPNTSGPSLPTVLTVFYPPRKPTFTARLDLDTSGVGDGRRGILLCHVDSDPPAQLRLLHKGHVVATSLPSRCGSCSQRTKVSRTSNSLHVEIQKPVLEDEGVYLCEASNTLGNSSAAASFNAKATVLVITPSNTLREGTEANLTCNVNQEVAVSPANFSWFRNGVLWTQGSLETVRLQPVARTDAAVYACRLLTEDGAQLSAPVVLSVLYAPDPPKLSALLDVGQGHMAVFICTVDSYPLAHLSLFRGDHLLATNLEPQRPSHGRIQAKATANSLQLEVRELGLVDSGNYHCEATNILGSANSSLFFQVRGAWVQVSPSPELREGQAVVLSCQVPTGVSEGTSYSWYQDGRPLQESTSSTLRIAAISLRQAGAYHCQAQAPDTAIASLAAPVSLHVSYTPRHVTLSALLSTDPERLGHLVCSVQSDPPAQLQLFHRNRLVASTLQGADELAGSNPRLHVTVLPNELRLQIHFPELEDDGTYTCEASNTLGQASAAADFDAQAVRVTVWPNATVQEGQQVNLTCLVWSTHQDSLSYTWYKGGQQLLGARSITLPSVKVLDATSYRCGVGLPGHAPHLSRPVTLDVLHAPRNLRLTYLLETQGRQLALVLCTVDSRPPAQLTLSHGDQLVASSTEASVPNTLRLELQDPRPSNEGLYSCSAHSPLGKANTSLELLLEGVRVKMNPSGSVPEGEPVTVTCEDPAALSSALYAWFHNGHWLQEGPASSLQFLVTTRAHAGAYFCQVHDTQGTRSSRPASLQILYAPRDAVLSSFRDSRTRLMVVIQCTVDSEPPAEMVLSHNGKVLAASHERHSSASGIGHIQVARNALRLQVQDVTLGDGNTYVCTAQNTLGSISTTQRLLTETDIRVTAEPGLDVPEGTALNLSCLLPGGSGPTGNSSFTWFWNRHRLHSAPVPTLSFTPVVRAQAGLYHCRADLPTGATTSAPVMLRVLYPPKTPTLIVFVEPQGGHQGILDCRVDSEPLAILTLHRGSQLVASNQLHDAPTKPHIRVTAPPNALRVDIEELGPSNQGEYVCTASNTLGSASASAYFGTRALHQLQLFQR

B1: rmCD43-hFc (Fc fusion, mouse, UniProt P15702 20-248, looked up)
chain: DSLQRTTMLPSTPHITAPSTSEAQNASPSVSVGSGTVDSKETISPWGQTTIPVSLTPLETTELSSLETSAGASMSTPVPEPTASQEVSSKTSALLPEPSNVASDPPVTAANPVTDGPAANPVTDGTAASTSISKGTSAPPTTVTTSSNETSGPSVATTVSSKTSGPPVTTATGSLGPSSEMHGLPATTATSSVESSSVARGTSVSSRKTSTTSTQDPITTRSPSQESSG
With B1 the Kd was 107 nM.
